The target in one experiment is hu-CD96D1 D3-hFc (human). The experiment in a line: ELISA, coated CD96D1D3-hFc. The protocol: (§1) CD96 binding of purified hybridoma antibodies: The hu-CD96 and cy-CD96 antigen binding ELISA was performed on the purified hybridoma antibodies. Briefly, 96-well MAXISORP® flat bottom plates (Thermo Fisher Scientific, Waltham, MA; Cat #439454) were coated overnight at 4° C. with 0.5 µg/mL of hu-CD96D1 D3-hFc and cynomolgus monkey CD96D1 D3-hFc in PBS. After removing the coating solution, unspecific binding was blocked by PBS containing 1% bovine serum albumin (blocking buffer) and incubation at room temperature for one hour. Plates were then washed three times with PBS and 0.05% TWEEN®-20 (wash buffer). Serial dilution of purified antibodies in PBS containing 0.5% BSA and 0.05% Tween 20 (ELISA buffer) was added to individual wells followed by incubation at room temperature for one hour with agitation. Plates were washed three times with wash buffer, then 100 µL/well of anti-mouse IgG-HRP (Thermo Fisher Scientific, Waltham, MA; Cat #626520) in ELISA buffer was added. […] Enzymatic color development was stopped with 50 µL/well of TMB stop solution (VWR/Avantor, Radnor, PA, USA; Cat #95059-200). Plates were analyzed with a SpectraMax i3X plate reader (Molecular Devices LLC, San Jose, CA, USA) at 450 nm.
A general note: ELISA stands for enzyme-linked immunosorbent assay.

In experiment [1] the target is T1, recombinant hu-CD96 (M1-M503-polyHis) (human, UniProt P40200 22-519).
T1 construct: also called hu-CD96-his
T1 sequence: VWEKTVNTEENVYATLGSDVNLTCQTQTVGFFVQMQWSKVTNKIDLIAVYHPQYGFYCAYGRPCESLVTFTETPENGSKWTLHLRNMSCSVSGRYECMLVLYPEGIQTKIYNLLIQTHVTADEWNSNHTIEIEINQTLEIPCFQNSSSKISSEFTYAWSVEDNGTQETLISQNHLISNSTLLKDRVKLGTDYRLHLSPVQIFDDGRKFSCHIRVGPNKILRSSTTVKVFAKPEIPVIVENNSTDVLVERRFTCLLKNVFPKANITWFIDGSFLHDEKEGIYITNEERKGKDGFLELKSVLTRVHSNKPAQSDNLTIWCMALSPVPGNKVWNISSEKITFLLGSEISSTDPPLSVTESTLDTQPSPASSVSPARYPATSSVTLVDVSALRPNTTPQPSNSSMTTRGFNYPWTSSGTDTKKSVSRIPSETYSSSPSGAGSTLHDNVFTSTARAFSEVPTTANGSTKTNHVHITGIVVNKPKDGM
The experiment in a line: ELISA, blocks hu-CD96-his binding to coated CD155-hFc. The protocol: as §1
CD155 receptor blocking of purified hybridoma antibodies: Human CD155 blocking ELISA was performed on purified hybridoma antibodies following the same protocol as described for CD96 (above), except that serial dilution of purified antibodies 50 µL/well (starting at 1 µM, 1:5 dilution) in assay buffer was added into the reaction.

Experiment [2] has as its target T2, cynomolgus monkey CD96D1 D3-hFc (cynomolgus monkey).
T2 construct: also called cy-CD96D1 D3
In words: ELISA, coated CD96D1D3-hFc. The protocol:
as §1

The target of experiment [3] is T3, cy-CD96 (soluble, extracellular domain) (cynomolgus monkey, UniProt P40200 22-516 (human entry), biotinylated in Octet and blocking ELISA).
T3 construct: the assays name only cy-CD96; also called biotinylated cy-CD96
T3 chain: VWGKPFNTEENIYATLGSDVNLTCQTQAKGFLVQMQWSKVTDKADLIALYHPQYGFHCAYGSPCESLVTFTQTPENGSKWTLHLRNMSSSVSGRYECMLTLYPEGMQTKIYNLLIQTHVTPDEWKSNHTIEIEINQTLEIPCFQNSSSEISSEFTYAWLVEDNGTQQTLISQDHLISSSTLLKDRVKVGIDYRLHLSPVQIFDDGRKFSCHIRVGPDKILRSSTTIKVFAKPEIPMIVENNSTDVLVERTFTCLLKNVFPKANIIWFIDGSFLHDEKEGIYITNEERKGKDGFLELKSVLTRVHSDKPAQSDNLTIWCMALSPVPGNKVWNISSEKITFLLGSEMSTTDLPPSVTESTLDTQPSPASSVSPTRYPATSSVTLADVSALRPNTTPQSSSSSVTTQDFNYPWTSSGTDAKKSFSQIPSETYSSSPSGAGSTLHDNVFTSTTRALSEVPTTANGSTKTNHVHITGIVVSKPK
The experiment in a line: BLI (Octet), biotin-CD96 on SA, Fab analyte. A general note: In BLI a coated tip is dipped into the sample, and binding shifts an interference pattern.

The target in experiment [4] is T4, hu-CD96 (soluble, isoform 2 extracellular domain) (human, UniProt P40200 22-516, biotinylated in Octet and blocking ELISA).
T4 construct: the assays name only hu-CD96; also called hCD96; biotinylated hu-CD96
T4 sequence: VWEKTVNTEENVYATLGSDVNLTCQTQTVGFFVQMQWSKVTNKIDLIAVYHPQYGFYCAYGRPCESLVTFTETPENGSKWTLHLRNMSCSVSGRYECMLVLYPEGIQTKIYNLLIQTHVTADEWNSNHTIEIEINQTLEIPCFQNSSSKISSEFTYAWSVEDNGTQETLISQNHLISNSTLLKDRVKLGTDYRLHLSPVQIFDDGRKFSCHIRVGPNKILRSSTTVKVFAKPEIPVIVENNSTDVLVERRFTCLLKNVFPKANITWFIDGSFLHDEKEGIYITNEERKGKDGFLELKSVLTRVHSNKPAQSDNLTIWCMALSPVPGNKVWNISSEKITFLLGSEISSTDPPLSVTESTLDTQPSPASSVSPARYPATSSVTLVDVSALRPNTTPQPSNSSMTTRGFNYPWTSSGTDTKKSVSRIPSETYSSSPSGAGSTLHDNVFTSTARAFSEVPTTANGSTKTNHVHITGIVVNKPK
In words: BLI (Octet), biotin-CD96 on SA, Fab analyte.

Experiment [5] concerns the target T4, hu-CD96 (soluble, isoform 2 …). In words: CD155 blocking ELISA.
For another experiment, the target named is T5, hu-CD96 Fc (human, biotinylated in Table 16).
T5 construct: also called biotinylated hu-CD96-Fc
The experiment in a line: SPR (Biacore), Fab. On the technique in general: SPR reads the build-up and loss of mass on a sensor chip optically.

Numbering of substitutions follows the chain as printed. Names may count otherwise.

T2 sequence (chain, as listed by the source limits assumed): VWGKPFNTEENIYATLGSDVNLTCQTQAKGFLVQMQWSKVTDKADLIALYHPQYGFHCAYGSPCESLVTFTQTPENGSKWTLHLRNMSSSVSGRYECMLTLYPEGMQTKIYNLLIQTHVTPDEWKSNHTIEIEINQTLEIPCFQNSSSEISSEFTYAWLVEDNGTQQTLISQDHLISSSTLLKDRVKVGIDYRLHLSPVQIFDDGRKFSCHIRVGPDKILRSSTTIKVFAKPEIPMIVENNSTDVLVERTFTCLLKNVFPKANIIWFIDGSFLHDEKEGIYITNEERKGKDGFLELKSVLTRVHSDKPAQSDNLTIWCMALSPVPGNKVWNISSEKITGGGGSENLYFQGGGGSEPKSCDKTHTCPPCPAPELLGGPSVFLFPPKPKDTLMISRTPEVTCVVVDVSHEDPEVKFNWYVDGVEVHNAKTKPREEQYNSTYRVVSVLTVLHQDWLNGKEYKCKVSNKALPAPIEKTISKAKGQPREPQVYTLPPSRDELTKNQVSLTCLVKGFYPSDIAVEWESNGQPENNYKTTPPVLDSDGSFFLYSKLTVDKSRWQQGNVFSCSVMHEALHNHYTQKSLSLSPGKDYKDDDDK

B1: 10H5, purified hybridoma antibody (antibody, V domains shown)
VH: QVQLQQSGADLARPGASIKLSCKASGYTFTGYGVTWVKQSTGQGLDWIGEIYPGTVITYYNAKFKGKATLTADKSSSTAYMELRSLTSEDSAVYFCARGLGRAMDYWGQGTSVTVSS
VL: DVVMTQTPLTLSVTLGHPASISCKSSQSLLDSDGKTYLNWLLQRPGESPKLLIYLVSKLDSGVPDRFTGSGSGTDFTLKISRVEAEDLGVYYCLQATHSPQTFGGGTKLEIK
notes: murine hybridoma IgG
B1: in the experiment with hu-CD96D1 D3-hFc, the EC50 (in general, the concentration needed to bring the measured effect to its halfway point) came to 50 pM. Also, the IC50 (usually the concentration at which inhibition is half-maximal) in experiment [1] was 958 pM.

B2: 12F8 (clone 12F8.12B5), purified hybridoma antibody (antibody, V domains shown)
VH: QVQLQQPGAELVTPGASVKLSCKASGFTFTNNWMHWVKQRPGQGLEWIGMIHPNSGITNINEKFKNKATVTVDKSSSTVYIQLSSLTSEDSAVYYCRSDGTYEGYFDYWGQGTPLTVSS
VL: DIVMTQSQKFMSTSVGDRVSVTCKASQNVGTAIVWYQKKPGQSPKTLIYSASTRYTGVPDRFTGSGSGTDFTLTISNVQSEDLAEYFCQQYSSSPLTFGSGTKLEIK
notes: murine hybridoma IgG
B2: the figures for the EC50 (in experiment [2]; with hu-CD96D1 D3-hFc) were ~10000 pM and 250 pM, respectively. In experiment [1], the half-inhibitory concentration (IC50) came out at 950 pM.

B3: mAb1.v7.NGS7 Fab (Fab, V domains shown)
VH: EVQLVQSGAEVKKPGASVKVSCKASGFTFTNNWMHWVRQAPGQGLEWIGMIHPNSGITNINEKFKNRVTMTTDTSTSTAYMELRSLRSEDTAVYYCRSDGVYEGYFDYWGQGTLVTVSS
VL: DIQLTQSPSSLSASVGDRVTITCKASQNVGTAIVWYQQKPGKAPKVLIYSASTRYTGVPSRFSGSGSGTDFTLTISSLQPEDFATYYCQQYSSSPLTFGQGTKVEIK
notes: also called T97V
Turning to B3, the Kd (as a rule, a measure of binding affinity in units of concentration) in experiment [3] came to 383000 pM; in experiment [4], 5610 pM.

B4: mAb1.v7.NGS8 Fab (Fab, V domains shown)
VH: B3 VH with W33F, P53A, V101I
VL: B3 VL
notes: Fab with 8xHis tag; also called W33F/P52aA/T97I
B4 came in with a concentration for half-maximal inhibition (IC50) in experiment [5] of 200 pM. This molecule showed a Kd in experiment [4] of 100 pM. Further, in the experiment with hu-CD96 Fc, the dissociation constant Kd was determined as 1800 pM; the koff (in general, a measure of how fast the partners let go of each other) worked out at 2.53e-05 s⁻¹; the kon (as a rule, the second-order rate constant of association) is 16700 M⁻¹ s⁻¹.

B5: 16D9, purified hybridoma antibody (antibody, V domains shown)
VH: QVQLQQSGPELVKPGASVKISCKASGYNFNDYYINWVNQRPGQGLEWIGWIFPGRIITYYNEKFKGKATLTVDTSSNTAYMLLSSLTSEDSAVYFCARGVGEGFDYWGQGTTLTVSS
VL: ENVLTQSPAIMSATLGEKVTMNCRASSNVKYMYWYQQKSGVSPKLWIYYTSNLASGVPTRFSGSGSGTSYSLTISSVEAEDAATYYCQQFTSSPLTFGAGTKLELK
notes: murine hybridoma IgG
On to B5, for which the binding result in experiment [2] is on record as “no binding”. Also, the EC50 with hu-CD96D1 D3-hFc turned out to be 50 pM. In addition, the 50% inhibitory concentration (IC50) in experiment [1] was found to be 1060 pM.

The values are drawn from US12365732 (23ANDME, dated 2025).
